Experimental data published in patent US7807387B2, “Biological agent that causes IL-6 receptor release” (Meyer Pharmaceuticals LLC, priority 2003, dated 2010).
Marks after values point to notes of the source that are not given here.

Experiments:
[1] = biological target: IL-6 Receptor (Homo sapiens, UniProt P08887); assay: FRET peptide cleavage assay, IL-6 receptor peptide; assay type: biochemical; conditions: Zn++ 0.1 mM, Ca++ 2 mM, corrected for EDTA, 37° C. for 3 hours
Description: Cytokine-specific proteolytic activity can rapidly be quantified by Fluorescence Resonance Energy Transfer (FRET). Peptides having the amino acid sequence of the TNF Receptor or other protein substrates are labeled at opposite ends with a fluorescence emitter and a fluorescence quencher. The peptide is then incubated with a source of receptor cleaving enzyme, and fluorescence is measured. The quenching group normally absorbs fluorescence from the emitter. But enzymatic cleavage of the peptide decouples the quenching group, and fluorescence emission increases proportionally.
The peptides used as substrates in the cleavage assay were taken from the known sites of proteolytic cleavage of the whole protein. The peptides were labeled with the fluorescence emitter (Edans-●) at the C-terminal, and the quenching hapten (Dabcyl-▴) at the N-terminal.
The assay is conducted in the presence of the metal cations Zn^++ (0.1 mM) and Ca^++ (2 mM), and corrected for cleavage in the presence of EDTA (20 mM). Dependence on divalent cations confirms that the enzyme activity measured in this assay is a metalloprotease. The assay mixture also contains a cocktail of protease inhibitors and bovine albumin. Cleavage is measured as the net change in fluorescence emission after incubating the enzyme with the peptide at 37° C. for 3 hours. […]

[2] = biological target: T1, p55 TNF Receptor (Homo sapiens, UniProt P19438); assay: Cleavage of cell surface p55 TNF receptor on THP-1 cells; assay type: cell-based; conditions: 45 minutes at 37° C.
T1 construct: endogenous in cells; host or cells: THP-1
T1 sequence (P19438 30-455): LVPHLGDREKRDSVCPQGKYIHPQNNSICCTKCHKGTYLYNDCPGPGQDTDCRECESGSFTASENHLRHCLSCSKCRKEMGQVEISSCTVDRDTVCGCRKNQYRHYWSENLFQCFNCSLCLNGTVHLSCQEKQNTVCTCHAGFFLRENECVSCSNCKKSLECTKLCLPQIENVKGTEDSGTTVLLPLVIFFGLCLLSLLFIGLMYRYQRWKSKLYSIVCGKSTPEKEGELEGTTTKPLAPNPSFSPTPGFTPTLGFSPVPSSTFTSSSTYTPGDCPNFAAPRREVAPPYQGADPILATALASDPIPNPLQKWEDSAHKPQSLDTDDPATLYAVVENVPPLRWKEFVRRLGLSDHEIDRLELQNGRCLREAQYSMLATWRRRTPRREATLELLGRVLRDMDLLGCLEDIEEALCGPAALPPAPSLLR
Description: This cell line expresses both the p55 TNF receptor and the p75 TNF receptor. After incubating for 45 minutes at 37° C., the cells were washed, immunostained for cell surface receptor, and counted by flow cytometry.

[3] = tested on: TNF receptor; assay: TNF receptor release in vivo after subcutaneous injection; parameters: species or system Balb/c mice
Description: To determine if the enzyme cleaves TNF receptors in vivo, 100,000 FU of purified MP8 was injected subcutaneously as a 500 μL bolus into female Balb/c mice. Control mice were injected with saline. Serum was sampled periodically, and tested for cytokine levels using ELISA kits from R&D System.

[4] = tested on: LPS-induced septic shock; assay: LPS/galactosamine-induced septic shock model; assay type: in vivo, Balb/c mice
Description: A classic model for determining effectiveness of agents against cytokine-mediated inflammation is endotoxin-induced septic shock (Morrison et al., J Infect Dis 162:1063, 1990).
The septic shock experiment was conducted as follows. Female Balb/c mice were randomized by weight into 6 treatment groups. Sepsis was induced by injecting 10 μg LPS and 7 mg galactosamine in the lateral or dorsal caudal vein. Some of the groups were pretreated with 50,000 FU of MP8 simultaneously or 3 hours in advance of the LPS challenge to determine whether there was a protective effect.
FIG. 8 is a Kaplan-Meier survival curve, showing the mortality in each of the treatment groups in the study. Without any treatment or challenge, there is no effect on the animals, and the line stays at the top. Life-compromising challenge causes the line to fall to the bottom of the graph in a step-wise fashion as each animal succumbs. Treatment that is protective against the challenge maintains the line near the top of the graph.
The enzyme was administered in a volume of 110 μL at one hour before the LPS challenge.
Stability of the clinical effect of MP8 was determined in the septic shock model. Female Balb/c mice were injected with 300,000 FU of MP8 that had been stored for 4 days at −70° C., or 7 days at 4° C. One hour later, the mice were challenged with 10 μg LPS and 7 mg galactosamine as before.
In this example, durability of receptor cleavage in vivo was determined by treating animals subcutaneously up to three days in advance with 300,000 FU of MP8. The mice were then challenged with […] LPS and 7 mg galactosamine in the usual fashion.
Sepsis was induced in Balb/c mice by administering 10 μg LPS and […] galactosamine, as in Example 3. Randomized groups were pretreated with up to 40 μg MP8-FL2 one hours in advance of the LPS challenge.

[5] = Stability of receptor cleaving activity upon storage (FRET assay); assay type: physicochemical; conditions: a month of storage at 4° C. or −70° C., purified form
Description: The stability of MP8 was determined by storing aliquots of MP8 at 4° C. or −70°. Aliquots were taken out periodically to determine enzyme cleaving activity in the fluorescence resonance energy transfer peptide cleavage assay.

[6] = Clearance of MP8 protein from the circulation by dot-blot analysis; assay type: in vivo; conditions: mice
[7] = tested on: Experimental Autoimmune Encephalomyelitis; assay: Experimental Autoimmune Encephalomyelitis (EAE); assay type: in vivo, SJL/J mice; conditions: for Day of Onset (±SEM): p < 0.001; for Peak Clinical Score (±SEM): scale 0-5
Description: The EAE model (Brown et al., Lab. Invest. 45:278, 1981) was conducted as follows. Female SJL/J mice (6 weeks old) were randomized into 3 groups of 10. 2 mL of Myelin Proteolipid Peptide (PLP) was emulsified in 3 mL of Complete Freund's Adjuvant containing an additional 20 mg of M. tuberculosis H37Ra. On day 0, mice were immunized subcutaneously in the base of the tail and footpad with a total of 60 μg PLP. They were also given […] pertussis toxin i.p. on days 0 and 2. MP8 or saline control was administered s.c. every day from day −3 to day 20. Progression of the disease was measured up to day 21 on the following scale: 0≡normal; 1≡limp tail or hind limb weakness; 2≡both limp tail and hind limb weakness; 3≡partial hind limb paralysis; 4≡complete hind limb paralysis; 5≡moribund or sacrificed.

[8] = 100,000 FU s.c. every day from day −3 to day 20
[9] = 300,000 FU s.c. every day from day −3 to day 20

B1: MP8: polypeptide having the sequence of SEQ. ID NO:41 (usually with a HIS tag); cytokine receptor releasing protein expressed in E. coli (protein, listed as Homo sapiens)
chain: WIQRIRHEGNSTVYEWRTGTEPSVVERPHLEELPEQVAEDAIDWGDFGVEAVSEGTDSGISAEAAGIDWGIFPESDSKDPGGDGIDWGDDAVALQITVLEAGTQAPEGVARGPDALTLLEYTETRNQFLDELMELEIFLAQRAVELSEEADVLSVSQFQLAPAILQGQTKEKMVTMVSVLEDLIGKLTSLQLQHLFMILASPRYVDRVTEFLQQKLKQSQLLALKKELMVQKQQEALEEQAALEPKLDLLLEKTKELQKLIEADISKRYSGRPVNLMGTSL
modifications: HIS tag
notes: ID NO:41 (usually with a HIS tag); cytokine receptor releasing protein expressed in E. coli
cleavage of IL-6 receptor peptide [1]: high activity
cleavage of p55 TNF receptor on the surface of cells [2]: cleaves
persistence of the effect after administration ([3]; 100,000 FU subcutaneously): 48 h
persistence of released receptors in the circulation ([3]; other experiments): at least 6 days
protection against LPS-induced septic shock ([4]; 50,000 FU, simultaneously with LPS challenge or 3 hours in advance): fully protective
clinical efficacy in septic shock model after storage ([4]; 300,000 FU stored 4 days at −70° C. or 7 days at 4° C., one hour before challenge): can be frozen without causing a loss in clinical efficacy
protection against septic shock when administered days in advance ([4]; 300,000 FU subcutaneously up to three days in advance): able to protect most mice up to 3 days after administration
protection against LPS-induced septic shock ([4]; 300,000 FU, one hour before LPS challenge): completely protective
protection against LPS-induced septic shock ([4]; single dose of 30,000 FU, one hour before LPS challenge): able to protect a proportion of the challenged subjects
loss of peptide cleaving activity on storage [5]: no detectable loss of activity
first clearance half-time from the circulation [6]: ~39 h
Incidence of Disease [7, 8]: 5 out of 7
Day of Onset (±SEM) [7, 8]: 18.0 ± 0.8 ^a
Peak Clinical Score (±SEM) [7, 8]: 2.4 ± 0.7
Incidence of Disease [7, 9]: 3 out of 7
Day of Onset (±SEM) [7, 9]: 18.0 ± 2.5 ^a
Peak Clinical Score (±SEM) ([7]; 300,000 FU s.c. every day from day −3 to day 20, p < 0.01): 1.0 ± 0.5 ^b
emergence of symptoms ([7]; delayed from 12 days): 18 days
weight gain of treated animals ([7]; mouse, in vivo): continued to show normal weight gain
